Here are results for one molecule from article PMC6535915 (ASN NEURO, 2019).

This assay deals with T1, connexin 36 (rat (endogenous in supraoptic nucleus), UniProt O70610 1-321).
T1 sequence (looked up): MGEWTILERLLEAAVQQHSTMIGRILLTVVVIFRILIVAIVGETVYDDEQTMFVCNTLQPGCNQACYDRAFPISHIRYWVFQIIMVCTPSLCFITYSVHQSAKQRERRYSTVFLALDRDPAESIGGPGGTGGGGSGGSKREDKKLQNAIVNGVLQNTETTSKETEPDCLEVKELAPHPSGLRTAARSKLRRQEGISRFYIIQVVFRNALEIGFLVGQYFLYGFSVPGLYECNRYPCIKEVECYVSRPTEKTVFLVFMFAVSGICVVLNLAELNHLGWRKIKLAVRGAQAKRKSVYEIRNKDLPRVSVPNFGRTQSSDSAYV
The assay can be described thus: co-IP.

B1: oxytocin-neurophysin (natural protein, rat (endogenous in supraoptic nucleus), UniProt P01179 20-125, looked up)
chain: CYIQNCPLGGKRAALDLDMRKCLPCGPGGKGRCFGPSICCADELGCFVGTAEALRCQEENYLPSPCQSGQKPCGSGGRCATAGICCSPDGCRTDPACDPESAFSER
Turning to B1, the “fold co-precipitated OT-NP in lactating rats relative to virgin rats” value is 1.61 fold.
